{"source": "patent US20020004209A1", "about": "“Use of SLIM3 for binding to molecules” (Schering Aktiengesellschaft Patents, priority 1999, published 2002)", "assay_in_all_cases": "GST-protein-interaction test", "type_in_all_cases": "binding", "details_in_all_cases": "in vitro", "key": {"[1]": {"target": "co-activator TIF2 (Homo sapiens, UniProt Q15596)", "sequence (Q15596 whole entry, the tested form may be a part)": "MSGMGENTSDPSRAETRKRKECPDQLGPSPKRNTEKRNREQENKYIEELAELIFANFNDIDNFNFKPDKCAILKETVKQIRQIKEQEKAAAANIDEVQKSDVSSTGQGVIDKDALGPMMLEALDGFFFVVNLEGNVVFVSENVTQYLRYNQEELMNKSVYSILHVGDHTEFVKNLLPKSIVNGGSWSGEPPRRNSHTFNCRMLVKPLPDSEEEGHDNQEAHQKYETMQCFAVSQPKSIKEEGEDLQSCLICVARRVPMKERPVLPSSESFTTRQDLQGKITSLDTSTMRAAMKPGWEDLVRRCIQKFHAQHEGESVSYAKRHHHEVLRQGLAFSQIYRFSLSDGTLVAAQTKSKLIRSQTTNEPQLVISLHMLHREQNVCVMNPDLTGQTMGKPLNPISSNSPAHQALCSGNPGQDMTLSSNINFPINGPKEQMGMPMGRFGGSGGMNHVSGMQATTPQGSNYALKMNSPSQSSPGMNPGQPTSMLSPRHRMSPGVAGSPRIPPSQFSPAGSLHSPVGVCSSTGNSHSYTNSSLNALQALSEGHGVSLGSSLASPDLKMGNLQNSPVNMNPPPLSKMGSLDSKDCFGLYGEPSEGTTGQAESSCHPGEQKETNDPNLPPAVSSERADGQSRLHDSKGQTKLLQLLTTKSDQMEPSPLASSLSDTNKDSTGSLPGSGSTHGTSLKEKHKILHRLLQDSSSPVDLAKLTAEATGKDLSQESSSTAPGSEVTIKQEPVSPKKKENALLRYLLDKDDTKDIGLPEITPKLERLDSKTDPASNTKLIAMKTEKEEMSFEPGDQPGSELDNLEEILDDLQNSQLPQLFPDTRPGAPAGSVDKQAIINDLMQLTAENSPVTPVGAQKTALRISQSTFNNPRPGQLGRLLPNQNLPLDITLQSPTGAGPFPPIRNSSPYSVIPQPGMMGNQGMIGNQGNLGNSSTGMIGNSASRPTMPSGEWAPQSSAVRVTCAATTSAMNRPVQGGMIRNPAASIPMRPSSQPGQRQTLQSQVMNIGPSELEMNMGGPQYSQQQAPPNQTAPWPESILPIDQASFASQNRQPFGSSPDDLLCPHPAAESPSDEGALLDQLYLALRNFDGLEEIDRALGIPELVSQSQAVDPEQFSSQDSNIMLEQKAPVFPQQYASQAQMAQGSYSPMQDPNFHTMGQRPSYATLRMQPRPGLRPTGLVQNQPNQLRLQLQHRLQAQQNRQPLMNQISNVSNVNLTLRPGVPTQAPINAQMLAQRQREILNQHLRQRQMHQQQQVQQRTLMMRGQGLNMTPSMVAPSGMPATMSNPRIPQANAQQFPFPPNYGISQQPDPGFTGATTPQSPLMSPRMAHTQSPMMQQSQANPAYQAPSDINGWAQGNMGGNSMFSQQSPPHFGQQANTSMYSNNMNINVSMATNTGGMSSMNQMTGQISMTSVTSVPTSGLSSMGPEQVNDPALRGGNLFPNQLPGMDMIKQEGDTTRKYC", "sequence (Q14192 whole entry partner, the tested form may be a part)": "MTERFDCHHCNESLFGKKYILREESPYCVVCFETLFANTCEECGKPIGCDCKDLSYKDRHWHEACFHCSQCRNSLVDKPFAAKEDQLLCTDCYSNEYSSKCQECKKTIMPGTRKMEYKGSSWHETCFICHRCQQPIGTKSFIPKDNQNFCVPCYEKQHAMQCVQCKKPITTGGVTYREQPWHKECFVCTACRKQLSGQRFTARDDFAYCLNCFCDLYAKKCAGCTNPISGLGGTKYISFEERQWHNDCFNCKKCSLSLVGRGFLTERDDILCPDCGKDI", "description": "(§1) To measure the interaction between SLIM3 and the nuclear receptors in vitro, the GST-Slim3 fusion protein was immobilized by means of glutathione-sepharose and incubated with several in vitro-translated ^35S-methionine-labeled nuclear receptors. The complete human androgen receptor binds to GST-Slim3. This in vitro interaction is not ligand-dependent under standard conditions. The complete human androgen receptor binds specifically to GST-Slim3, but not to the GST protein alone. To safeguard the specificity between the human androgen receptor and SLIM3, another GST-protein-interaction test was carried out (GST-protein-interaction assay). This test is described in E. PFITZNER et al. (1995) Functional Antagonism Between the Retinoid Acid Receptor and the Viral Transactivator BZLF1 is Mediated by Protein-Protein Interactions. Proc Natl Acad Sci USA Vol. 92, pp. 12265-12269."}, "[2]": {"target": "T1, progesterone receptor beta (Homo sapiens, UniProt P06401)", "T1 construct": "made in house; host or cells: in vitro translation, 35S-methionine labelled", "T1 sequence (P06401 1-933)": "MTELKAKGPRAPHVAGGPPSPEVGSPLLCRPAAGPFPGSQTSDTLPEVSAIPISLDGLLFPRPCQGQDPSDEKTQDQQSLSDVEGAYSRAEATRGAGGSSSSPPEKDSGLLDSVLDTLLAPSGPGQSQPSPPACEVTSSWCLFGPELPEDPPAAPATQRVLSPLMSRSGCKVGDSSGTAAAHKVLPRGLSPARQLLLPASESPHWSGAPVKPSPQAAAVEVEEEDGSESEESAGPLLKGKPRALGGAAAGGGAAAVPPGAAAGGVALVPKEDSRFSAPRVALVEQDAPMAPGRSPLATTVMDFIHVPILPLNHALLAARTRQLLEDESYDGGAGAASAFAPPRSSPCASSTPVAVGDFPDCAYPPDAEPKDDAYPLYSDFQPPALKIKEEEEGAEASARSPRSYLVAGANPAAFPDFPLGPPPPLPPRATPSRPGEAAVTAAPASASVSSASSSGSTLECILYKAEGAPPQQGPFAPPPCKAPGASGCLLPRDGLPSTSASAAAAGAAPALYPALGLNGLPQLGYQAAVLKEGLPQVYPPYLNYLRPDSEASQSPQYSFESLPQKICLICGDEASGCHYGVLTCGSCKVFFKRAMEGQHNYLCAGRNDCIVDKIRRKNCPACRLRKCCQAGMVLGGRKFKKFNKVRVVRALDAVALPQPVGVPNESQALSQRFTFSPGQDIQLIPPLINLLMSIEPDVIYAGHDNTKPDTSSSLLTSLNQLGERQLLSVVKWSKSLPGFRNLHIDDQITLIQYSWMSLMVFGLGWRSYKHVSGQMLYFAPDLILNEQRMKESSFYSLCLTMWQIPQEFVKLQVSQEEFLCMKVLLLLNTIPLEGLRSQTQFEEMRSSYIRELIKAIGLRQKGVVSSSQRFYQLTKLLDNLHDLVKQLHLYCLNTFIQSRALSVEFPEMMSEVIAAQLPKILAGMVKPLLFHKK", "description": "as §1"}, "[3]": {"target": "T2, progesterone receptor alpha (Homo sapiens, UniProt P06401)", "T2 construct": "made in house; host or cells: in vitro translation, 35S-methionine labelled", "T2 sequence (P06401 1-769 isoform P06401-2)": "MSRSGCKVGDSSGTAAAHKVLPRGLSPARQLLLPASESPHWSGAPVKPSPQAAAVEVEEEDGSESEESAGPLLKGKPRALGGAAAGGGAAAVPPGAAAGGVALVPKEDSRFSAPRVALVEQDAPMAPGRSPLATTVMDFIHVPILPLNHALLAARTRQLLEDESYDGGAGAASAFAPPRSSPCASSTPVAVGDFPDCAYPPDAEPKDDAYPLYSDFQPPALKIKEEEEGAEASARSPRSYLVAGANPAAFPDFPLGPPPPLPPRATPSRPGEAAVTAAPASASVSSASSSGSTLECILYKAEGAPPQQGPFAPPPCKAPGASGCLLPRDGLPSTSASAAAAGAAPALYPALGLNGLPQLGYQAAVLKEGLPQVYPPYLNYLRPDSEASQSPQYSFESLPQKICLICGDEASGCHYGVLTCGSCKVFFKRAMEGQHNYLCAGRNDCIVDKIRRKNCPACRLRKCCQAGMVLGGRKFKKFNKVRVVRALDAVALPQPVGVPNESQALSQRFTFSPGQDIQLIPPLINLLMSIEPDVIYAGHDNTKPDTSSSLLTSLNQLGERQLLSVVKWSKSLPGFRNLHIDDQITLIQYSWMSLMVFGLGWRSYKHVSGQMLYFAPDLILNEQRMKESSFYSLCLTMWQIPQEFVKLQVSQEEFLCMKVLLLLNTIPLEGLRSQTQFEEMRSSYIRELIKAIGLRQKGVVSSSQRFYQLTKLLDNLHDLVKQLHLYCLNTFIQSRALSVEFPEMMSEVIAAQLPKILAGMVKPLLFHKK", "description": "as §1"}, "[4]": {"target": "T3, estrogen receptors alpha (Homo sapiens, UniProt P03372)", "T3 construct": "made in house; host or cells: in vitro translation, 35S-methionine labelled", "T3 sequence (P03372 1-595)": "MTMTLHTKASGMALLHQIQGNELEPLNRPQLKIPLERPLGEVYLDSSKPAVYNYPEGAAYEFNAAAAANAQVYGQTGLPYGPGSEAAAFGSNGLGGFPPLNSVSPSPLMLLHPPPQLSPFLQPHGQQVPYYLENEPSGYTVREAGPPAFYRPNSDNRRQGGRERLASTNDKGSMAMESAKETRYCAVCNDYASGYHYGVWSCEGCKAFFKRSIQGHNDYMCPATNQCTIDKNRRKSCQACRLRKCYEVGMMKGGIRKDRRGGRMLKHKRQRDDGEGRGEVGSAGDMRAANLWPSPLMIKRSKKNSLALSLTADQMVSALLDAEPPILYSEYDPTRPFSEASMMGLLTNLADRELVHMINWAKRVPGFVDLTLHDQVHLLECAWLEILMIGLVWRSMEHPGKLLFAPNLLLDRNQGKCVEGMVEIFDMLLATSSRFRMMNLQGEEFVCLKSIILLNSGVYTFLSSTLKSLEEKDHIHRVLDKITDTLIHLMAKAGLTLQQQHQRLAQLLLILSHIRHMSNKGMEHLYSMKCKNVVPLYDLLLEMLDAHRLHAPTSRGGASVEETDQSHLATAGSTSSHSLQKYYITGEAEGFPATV", "description": "as §1"}}, "data": [{"substance": "SLIM3: LIM-domain protein of 279 amino acids, co-activator for nuclear receptors AR and ERβ", "values": [{"measurement": "interaction with co-activator", "setting": "[1]", "value": "interacts"}, {"measurement": "bond to SLIM3", "setting": "[2]", "value": "no bond"}, {"measurement": "bond to SLIM3", "setting": "[3]", "value": "no bond"}, {"measurement": "bond to SLIM3", "setting": "[4]", "value": "no bond"}]}]}
